Experimental data: patent publication US20260125649A1, “MEDIUM COMPOSITION AND METHOD FOR CULTURING MESENCHYMAL STEM CELLS” (ACADEMIA SINICA, priority 2018, published 2026)
Several values for one entry are separate records, joined by “and”; a condition that tells them apart may be missing. Equal entries are not always repeated.

Assays:
[1] = test system: MSCs; assay: Cell cycle progression by flow cytometry with PI staining; type: cell-based, human; conditions: EpEX, at 18 h; from 6.5% without EpEX
Procedure: Phospho-EGFR (Tyr845) was detected by Western blotting. […] After treatment, cell cycle progression was investigated by flow cytometry with PI staining. Fraction of cells in each phase (G1, S, G2/M) of the cell cycle was evaluated. Cells that expressed EGFR shRNA or shLuc were treated with EpEX for 18 h. After treatment, cell cycle progression was investigated by flow cytometry with PI staining. Fraction of cells in each phase (G1, S, G2/M) of the cell cycle was evaluated. […] The protein expression of cell cycle regulators (cyclin D1, cyclin D2, cyclin E1) and pluripotency factors (Oct4, Sox2, c-Myc, Lin28) was examined by Western blotting. MSCs expressing EGFR shRNA were stimulated by EpEX. After treatment, the protein expression of cell cycle regulators (cyclin D1, cyclin E1, CDK4 and CDK9) and pluripotency factors (Oct4, in Sox2, c-Myc, and Lin 28) was examined by Western blotting. […] After treatment, the gene expression of pluripotency factors (Oct4, Sox2, c-Myc, Lin28 and EpCAM) was examined by qPCR.
After treatment, the protein levels of total STAT3 and phospho-STAT3 (Tyr705) were examined by Western blotting. […] Cell cycle progression was investigated by flow cytometry with PI staining. Fraction of cells in each phase (G1, S, G2/M) of the cell cycle was evaluated. […] Fraction of cells in each phase (G1, S, G2/M) of the cell cycle was evaluated. […]

[2] = test system: human bone marrow-derived MSCs; assay: MSC doubling time (cell number counted); type: cell-based
Procedure: The proliferation of MSCs was examined by measuring doubling time. MSCs were treated with EpEX (3 μg/mL) for 24 and 48 h. Cell number was counted and then doubling time was calculated. MSCs were treated with EpEX (3 μg/mL) for the indicated times. After treatment, protein expression of cell cycle regulators (cyclin D1, cyclin D2, cyclin D3, cyclin E1, CDK4 and CDK9) and pluripotency factors (Oct4, Sox2, c-Myc, and Lin28) was examined by Western blotting.
All experiments with primary human cells were conducted in accordance with relevant guidelines and regulations. Human primary bone marrow mesenchymal stem cells (BMMSCs) were purchased from LONZA and were cultured with Dulbecco's Modified Eagle Media-low glucose (DMEM-LG) medium containing 16.6% FBS, 1 mM L-glutamine (Invitrogen), 100 μg/ml Penicillin/Streptomycin (Gibco). All cells were cultured at 37° C. and 5% CO2. All experiments on primary cells were performed within 10 passages.
(§1) We used human bone marrow-derived MSCs to study the effects of EpEX and first investigated whether EpEX promotes cell proliferation of MSCs. […] Next, we examined the effect of EpEX on cell cycle progression by flow cytometry with propidium iodide (PI) staining. […] EpCAM has been reported to enhance cell cycle progression through upregulation of the proto-oncogene c-Myc and cyclin A/E (Munz et al., 2004). […]

[3] = test system: Oct4, Sox2, c-Myc and EpCAM; assay: Flow cytometry of stemness markers in MSCs; type: cell-based, human; conditions: data not shown
Procedure: Cells were dissociated with 0.25% trypsin-EDTA (1 mM) (Invitrogen) for 3 min, washed with fluorescence-activated cell sorting buffer (FACS buffer, PBS containing 1% fetal bovine serum), fixed in 4% PFA, and then permeabilized with 0.1% Triton X-100 in PBS. Subsequently, cells were stained with Oct4, Sox2 or Nanog antibodies (1:100, ab 107156, Abcam, UK), washed and suspended in FACS buffer, and incubated with secondary antibody (1:200, Jackson ImmunoResearch) for 60 min at room temperature. Flow cytometry analysis was performed with a BD FACSCanto II flow cytometer (BD Biosciences, CA, USA).
as §1, with “2004). Additionally, EpCAM is known to upregulate cyclin D1 via its direct interaction partner, FHL2, and downstream events such as phosphorylation of the retinoblastoma protein, Rb (Chaves-Perez et al., 2013). Therefore, we further asked whether EpEX can function to upregulate the expression of cell cycle regulators and pluripotency markers.” for “2004).”

B1: EpEX: extracellular domain of human EpCAM, 265 amino acids in length (SEQ ID NO: 2) (protein, listed as Homo sapiens)
chain: MAPPQVLAFGLLLAAATATFAAAQEECVCENYKLAVNCFVNNNRQCQCTSVGAQNTVICSKLAAKCLVMKAEMNGSKLGRRAKPEGALQNNDGLYDPDCDESGLFKAKQCNGTSMCWCVNTAGVRRTDKDTEITCSERVRTYWIIIELKHKAREKPYDSKSLRTALQKEITTRYQLDPKFITSILYENNVITIDLVQNSSQKTQNDVDIADVAYYFEKDVKGESLFHSKKMDLTVNGEQLDLDPGQTLIYYVDEKAPEFSMQGLK
For B1, the “percentage of cells in G2/M phase” value [1] was 29.3%, the MSC doubling time ([2]; P3, EpEX 3 μg/mL (0 μg/mL: 17.6 ± 0.3 h)) was 16.1 ± 0.1 h and the MSC doubling time ([2]; P9, EpEX 3 μg/mL (0 μg/mL: 38.2 ± 1.7 h)) was 22.5 h and 22.5 ± 0.4 h. For the same molecule, the “protein levels of the stemness markers Oct4, Sox2, c-Myc and EpCAM” value [3] was “increased”.
